Laboratory results: patent US20230407373A1 (priority 2020, published 2023)

B1: EIF2AK2 (protein, UniProt P19525 2-551, looked up)
Interferon-induced, …: AGDLSAGFFMEELNTYRQKQGVVLKYQELPNSGPPHDRRFTFQVIIDGREFPEGEGRSKKEAKNAAAKLAVEILNKEKKAVSPLLLTTTNSSEGLSMGNYIGLINRIAQKKRLTVNYEQCASGVHGPEGFHYKCKMGQKEYSIGTGSTKQEAKQLAAKLAYLQILSEETSVKSDYLSSGSFATTCESQSNSLVTSTLASESSSEGDFSADTSEINSNSDSLNSSSLLMNGLRNNQRKAKRSLAPRFDLPDMKETKYTVDKRFGMDFKEIELIGSGGFGQVFKAKHRIDGKTYVIKRVKYNNEKAEREVKALAKLDHVNIVHYNGCWDGFDYDPETSDDSLESSDYDPENSKNSSRSKTKCLFIQMEFCDKGTLEQWIEKRRGEKLDKVLALELFEQITKGVDYIHSKKLIHRDLKPSNIFLVDTKQVKIGDFGLVTSLKNDGKRTRSKGTLRYMSPEQISSQDYGKEVDLYALGLILAELLHVCDTAFETSKFFTDLRDGIISDIFDKKEKTLLQKLLSKKPEDRPNTSEILRTLTVWKKSPEKNERHTC
B2: TOP1 (protein, UniProt P11387 2-765, looked up)
DNA topoisomerase 1: SGDHLHNDSQIEADFRLNDSHKHKDKHKDREHRHKEHKKEKDREKSKHSNSEHKDSEKKHKEKEKTKHKDGSSEKHKDKHKDRDKEKRKEEKVRASGDAKIKKEKENGFSSPPQIKDEPEDDGYFVPPKEDIKPLKRPRDEDDADYKPKKIKTEDTKKEKKRKLEEEEDGKLKKPKNKDKDKKVPEPDNKKKKPKKEEEQKWKWWEEERYPEGIKWKFLEHKGPVFAPPYEPLPENVKFYYDGKVMKLSPKAEEVATFFAKMLDHEYTTKEIFRKNFFKDWRKEMTNEEKNIITNLSKCDFTQMSQYFKAQTEARKQMSKEEKLKIKEENEKLLKEYGFCIMDNHKERIANFKIEPPGLFRGRGNHPKMGMLKRRIMPEDIIINCSKDAKVPSPPPGHKWKEVRHDNKVTWLVSWTENIQGSIKYIMLNPSSRIKGEKDWQKYETARRLKKCVDKIRNQYREDWKSKEMKVRQRAVALYFIDKLALRAGNEKEEGETADTVGCCSLRVEHINLHPELDGQEYVVEFDFLGKDSIRYYNKVPVEKRVFKNLQLFMENKQPEDDLFDRLNTGILNKHLQDLMEGLTAKVFRTYNASITLQQQLKELTAPDENIPAKILSYNRANRAVAILCNHQRAPPKTFEKSMMNLQTKIDAKKEQLADARRDLKSAKADAKVMKDAKTKKVVESKKKAVQRLEEQLMKLEVQATDREENKQIALGTSKLNYLDPRITVAWCKKWGVPIEKIYNKTQREKFAWAIDMADEDYEF
B3: ADAR (protein, UniProt P55265 1-1226, looked up)
Double-stranded RNA-specific …: MNPRQGYSLSGYYTHPFQGYEHRQLRYQQPGPGSSPSSFLLKQIEFLKGQLPEAPVIGKQTPSLPPSLPGLRPRFPVLLASSTRGRQVDIRGVPRGVHLRSQGLQRGFQHPSPRGRSLPQRGVDCLSSHFQELSIYQDQEQRILKFLEELGEGKATTAHDLSGKLGTPKKEINRVLYSLAKKGKLQKEAGTPPLWKIAVSTQAWNQHSGVVRPDGHSQGAPNSDPSLEPEDRNSTSVSEDLLEPFIAVSAQAWNQHSGVVRPDSHSQGSPNSDPGLEPEDSNSTSALEDPLEFLDMAEIKEKICDYLFNVSDSSALNLAKNIGLTKARDINAVLIDMERQGDVYRQGTTPPIWHLTDKKRERMQIKRNTNSVPETAPAAIPETKRNAEFLTCNIPTSNASNNMVTTEKVENGQEPVIKLENRQEARPEPARLKPPVHYNGPSKAGYVDFENGQWATDDIPDDLNSIRAAPGEFRAIMEMPSFYSHGLPRCSPYKKLTECQLKNPISGLLEYAQFASQTCEFNMIEQSGPPHEPRFKFQVVINGREFPPAEAGSKKVAKQDAAMKAMTILLEEAKAKDSGKSEESSHYSTEKESEKTAESQTPTPSATSFFSGKSPVTTLLECMHKLGNSCEFRLLSKEGPAHEPKFQYCVAVGAQTFPSVSAPSKKVAKQMAAEEAMKALHGEATNSMASDNQPEGMISESLDNLESMMPNKVRKIGELVRYLNTNPVGGLLEYARSHGFAAEFKLVDQSGPPHEPKFVYQAKVGGRWFPAVCAHSKKQGKQEAADAALRVLIGENEKAERMGFTEVTPVTGASLRRTMLLLSRSPEAQPKTLPLTGSTFHDQIAMLSHRCFNTLTNSFQPSLLGRKILAAIIMKKDSEDMGVVVSLGTGNRCVKGDSLSLKGETVNDCHAEIISRRGFIRFLYSELMKYNSQTAKDSIFEPAKGGEKLQIKKTVSFHLYISTAPCGDGALFDKSCSDRAMESTESRHYPVFENPKQGKLRTKVENGEGTIPVESSDIVPTWDGIRLGERLRTMSCSDKILRWNVLGLQGALLTHFLQPIYLKSVTLGYLFSQGHLTRAICCRVTRDGSAFEDGLRHPFIVNHPKVGRVSIYDSKRQSGKTKETSVNWCLADGYDLEILDGTRGTVDGPRNELSRVSKKNIFLLFKKLCSFRYRRDLLRLSYGEAKKAARDYETAKNYFKKGLKDMGYGNWISKPQEEKNFYLCPV
B4: KRT10 (protein, UniProt P13645 1-584, looked up)
Keratin, type I cytoskeletal …: MSVRYSSSKHYSSSRSGGGGGGGGCGGGGGVSSLRISSSKGSLGGGFSSGGFSGGSFSRGSSGGGCFGGSSGGYGGLGGFGGGSFRGSYGSSSFGGSYGGIFGGGSFGGGSFGGGSFGGGGFGGGGFGGGFGGGFGGDGGLLSGNEKVTMQNLNDRLASYLDKVRALEESNYELEGKIKEWYEKHGNSHQGEPRDYSKYYKTIDDLKNQILNLTTDNANILLQIDNARLAADDFRLKYENEVALRQSVEADINGLRRVLDELTLTKADLEMQIESLTEELAYLKKNHEEEMKDLRNVSTGDVNVEMNAAPGVDLTQLLNNMRSQYEQLAEQNRKDAEAWFNEKSKELTTEIDNNIEQISSYKSEITELRRNVQALEIELQSQLALKQSLEASLAETEGRYCVQLSQIQAQISALEEQLQQIRAETECQNTEYQQLLDIKIRLENEIQTYRSLLEGEGSSGGGGRGGGSFGGGYGGGSSGGGSSGGGHGGGHGGSSGGGYGGGSSGGGSSGGGYGGGSSSGGHGGSSSGGYGGGSSGGGGGGYGGGSSGGGSSSGGGYGGGSSSGGHKSSSSGSVGESSSKGPRY
B5: ZNF326: host protein, UniProt Q5BKZ1 (protein, UniProt Q5BKZ1 1-582, looked up)
DBIRD complex subunit ZNF326: MDFEDDYTHSACRNTYQGFNGMDRDYGPGSYGGMDRDYGHGSYGGQRSMDSYLNQSYGMDNHSGGGGGSRFGPYESYDSRSSLGGRDLYRSGYGFNEPEQSRFGGSYGGRFESSYRNSLDSFGGRNQGGSSWEAPYSRSKLRPGFMEDRGRENYSSYSSFSSPHMKPAPVGSRGRGTPAYPESTFGSRNYDAFGGPSTGRGRGRGHMGDFGSIHRPGIVVDYQNKSTNVTVAAARGIKRKMMQPFNKPSGTFIKKPKLAKPMEKISLSKSPTKTDPKNEEEEKRRIEARREKQRRRREKNSEKYGDGYRMAFTCSFCKFRTFEEKDIELHLESSSHQETLDHIQKQTKFDKVVMEFLHECMVNKFKKTSIRKQQTNNQTEVVKIIEKDVMEGVTVDDHMMKVETVHCSACSVYIPALHSSVQQHLKSPDHIKGKQAYKEQIKRESVLTATSILNNPIVKARYERFVKGENPFEIQDHSQDQQIEGDEEDEEKIDEPIEEEEDEDEEEEAEEVGEVEEVEEVEEVREGGIEGEGNIQGVGEGGEVGVVGEVEGVGEVEEVEELEEETAKEEPADFPVEQPEEN
B6: DKC1 (protein, UniProt O60832 2-514, looked up)
H/ACA ribonucleoprotein …: ADAEVIILPKKHKKKKERKSLPEEDVAEIQHAEEFLIKPESKVAKLDTSQWPLLLKNFDKLNVRTTHYTPLACGSNPLKREIGDYIRTGFINLDKPSNPSSHEVVAWIRRILRVEKTGHSGTLDPKVTGCLIVCIERATRLVKSQQSAGKEYVGIVRLHNAIEGGTQLSRALETLTGALFQRPPLIAAVKRQLRVRTIYESKMIEYDPERRLGIFWVSCEAGTYIRTLCVHLGLLLGVGGQMQELRRVRSGVMSEKDHMVTMHDVLDAQWLYDNHKDESYLRRVVYPLEKLLTSHKRLVMKDSAVNAICYGAKIMLPGVLRYEDGIEVNQEIVVITTKGEAICMAIALMTTAVISTCDHGIVAKIKRVIMERDTYPRKWGLGPKASQKKLMIKQGLLDKHGKPTDSTPATWKQEYVDYSESAKKEVVAEVVKAPQVVAEAAKTAKRKRESESESDETPPAAPQLIKKEKKKSKKDKKAKAGLESGAEPGDGDSDTTKKKKKKKKAKEVELVSE
B7: LARP7: host protein, UniProt Q4G0J3 (protein, UniProt Q4G0J3 1-582, looked up)
La-related protein 7: METESGNQEKVMEEESTEKKKEVEKKKRSRVKQVLADIAKQVDFWFGDANLHKDRFLREQIEKSRDGYVDISLLVSFNKMKKLTTDGKLIARALRSSAVVELDLEGTRIRRKKPLGERPKDEDERTVYVELLPKNVNHSWIERVFGKCGNVVYISIPHYKSTGDPKGFAFVEFETKEQAAKAIEFLNNPPEEAPRKPGIFPKTVKNKPIPALRVVEEKKKKKKKKGRMKKEDNIQAKEENMDTSNTSISKMKRSRPTSEGSDIESTEPQKQCSKKKKKRDRVEASSLPEVRTGKRKRSSSEDAESLAPRSKVKKIIQKDIIKEASEASKENRDIEISTEEEKDTGDLKDSSLLKTKRKHKKKHKERHKMGEEVIPLRVLSKSEWMDLKKEYLALQKASMASLKKTISQIKSESEMETDSGVPQNTGMKNEKTANREECRTQEKVNATGPQFVSGVIVKIISTEPLPGRKQVRDTLAAISEVLYVDLLEGDTECHARFKTPEDAQAVINAYTEINKKHCWKLEILSGDHEQRYWQKILVDRQAKLNQPREKKRGTEKLITKAEKIRLAKTQQASKHIRFSEYD

system: gRNA of HCoV-OC43; assay type: binding; details: type n_48_v: 48 hours post-infection, infected cells, OC43 Probe I; unweighted spectral count

Q: Which “target (spectral count, OC43 Probe I RNP capture)” value does the source give for B1 here?
A: 8

Q: B2 was tested. Which “target (spectral count, OC43 Probe I RNP capture)” value did it give?
A: 12

Q: With B3 as the molecule, how does the “target (spectral count, OC43 Probe I RNP capture)” value read?
A: 11

Q: For B4, which “target (spectral count, OC43 Probe I RNP capture)” value is on record?
A: 14

Q: For B5, which “target (spectral count, OC43 Probe I RNP capture)” value is on record?
A: 10

Q: For B6, which “target (spectral count, OC43 Probe I RNP capture)” value is on record?
A: 6

Q: For B7, which “target (spectral count, OC43 Probe I RNP capture)” value is on record?
A: 6

same assay, conditions: type n_48_v: 48 hours post-infection, no-probe control on infected cells

Q: With B1 as the molecule, how does the “background (spectral count, no-probe control)” value read?
A: 1

Q: Which “background (spectral count, no-probe control)” value does the source give for B2 here?
A: 2

Q: With B3 as the molecule, how does the “background (spectral count, no-probe control)” value read?
A: 2

Q: With B4 as the molecule, how does the “background (spectral count, no-probe control)” value read?
A: 3

Q: With B5 as the molecule, how does the “background (spectral count, no-probe control)” value read?
A: 2

Q: For B6, which “background (spectral count, no-probe control)” value is on record?
A: 1

Q: For B7, which “background (spectral count, no-probe control)” value is on record?
A: 1

system: HCoV-OC43 gRNA and sgRNA; assay type: binding; details: 24 hpi; type n_24_v; tested against no-probe control; FDR<10%

Q: B5 was tested. Which “target (unweighted spectral count, OC43 Probe II capture)” value did it give?
A: 4

same assay, conditions: 36 hpi; type n_36_v; tested against no-probe control; FDR<10%

Q: How did the “target (unweighted spectral count, OC43 Probe II capture)” value turn out when B1 was run?
A: 4

Q: With B2 as the molecule, how does the “target (unweighted spectral count, OC43 Probe II capture)” value read?
A: 14

Q: How did the “target (unweighted spectral count, OC43 Probe II capture)” value turn out when B5 was run?
A: 7

Q: Which “target (unweighted spectral count, OC43 Probe II capture)” value does the source give for B7 here?
A: 7

same assay, conditions: OC43 Probe II, 12 hpi (type n_12_v), infected cells; tested against no-probe control

Q: B2 was tested. Which “target (unweighted spectral count)” value did it give?
A: 31

same assay, conditions: OC43 Probe II, 24 hpi (type n_24_v), infected cells; tested against no-probe control

Q: Which “target (unweighted spectral count)” value does the source give for B2 here?
A: 12

same assay, conditions: type n_48_v; 48 hpi; OC43 Probe II capture on infected cells

Q: For B1, which “target (unweighted spectral count, OC43 Probe II)” value is on record?
A: 8

Q: With B3 as the molecule, how does the “target (unweighted spectral count, OC43 Probe II)” value read?
A: 11

Q: B4 was tested. Which “target (unweighted spectral count, OC43 Probe II)” value did it give?
A: 22

Q: How did the “target (unweighted spectral count, OC43 Probe II)” value turn out when B5 was run?
A: 8

Q: B6 was tested. Which “target (unweighted spectral count, OC43 Probe II)” value did it give?
A: 9

Q: B7 was tested. Which “target (unweighted spectral count, OC43 Probe II)” value did it give?
A: 9

same assay, conditions: type n_48_v; 48 hpi; no-probe control on infected cells

Q: Which “background (unweighted spectral count, no-probe control)” value does the source give for B1 here?
A: 1

Q: Which “background (unweighted spectral count, no-probe control)” value does the source give for B3 here?
A: 2

Q: How did the “background (unweighted spectral count, no-probe control)” value turn out when B4 was run?
A: 3

Q: With B5 as the molecule, how does the “background (unweighted spectral count, no-probe control)” value read?
A: 2

Q: For B6, which “background (unweighted spectral count, no-probe control)” value is on record?
A: 1

Q: With B7 as the molecule, how does the “background (unweighted spectral count, no-probe control)” value read?
A: 1

same assay, conditions: type s_36_m; HCoV-OC43-infected HCT-8 cells, 36 hpi, Probe II

Q: Which “target (spectral count)” value does the source give for B5 here?
A: 7

Q: How did the “target (spectral count)” value turn out when B7 was run?
A: 7

same assay, conditions: type s_36_m; uninfected-probe control, 36 hpi, Probe II

Q: With B5 as the molecule, how does the “background (spectral count)” value read?
A: 1

Q: B7 was tested. Which “background (spectral count)” value did it give?
A: 1
